Article PMC5469197, “ANGUSTIFOLIA, a Plant Homolog of CtBP/BARS Localizes to Stress Granules and Regulates Their Formation” (Frontiers in Plant Science, 2017)

Legend:
Assay in all cases: co-IP; LUMIER in HEK293TN cells: Prot-A fusion co-transfected with Renilla luciferase fusion (AN always the luciferase fusion with the interactors); luciferase activity before (input) and after pulldown; percentage pulldown = pulldown/input x 100; empty vectors as negative control; positive if more than two times the background
Conditions in all cases: partners not purified
[1] = target: T1, KH DOMAIN-CONTAINING PROTEIN (AT2G38610), Prot-A fusion (Arabidopsis thaliana, UniProt Q9ZVI3 1-286)
T1 construct: KH domain-containing protein, Arabidopsis thaliana, AT2G38610; CDS amplified from Col-0 cDNA; source: HEK293TN cells, transfected; not shown: Protein A (Staphylococcus aureus), N-terminal, kept
T1 sequence (looked up): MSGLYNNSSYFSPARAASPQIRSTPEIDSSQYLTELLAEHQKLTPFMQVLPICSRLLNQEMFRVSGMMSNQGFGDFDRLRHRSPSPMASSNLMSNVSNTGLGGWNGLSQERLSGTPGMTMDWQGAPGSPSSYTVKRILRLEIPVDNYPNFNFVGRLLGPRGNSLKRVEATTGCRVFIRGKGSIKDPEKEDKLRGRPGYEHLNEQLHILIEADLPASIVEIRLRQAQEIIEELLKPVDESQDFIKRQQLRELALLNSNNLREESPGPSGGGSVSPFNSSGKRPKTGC

[2] = target: T2, ARGONAUTE1 (AGO1), Prot-A fusion (Arabidopsis thaliana, UniProt O04379 1-1048)
T2 construct: ARGONAUTE1, Arabidopsis thaliana, AT1G48410; CDS amplified from Col-0 cDNA; source: HEK293TN cells, transfected; not shown: Protein A (Staphylococcus aureus), N-terminal, kept
T2 sequence (looked up): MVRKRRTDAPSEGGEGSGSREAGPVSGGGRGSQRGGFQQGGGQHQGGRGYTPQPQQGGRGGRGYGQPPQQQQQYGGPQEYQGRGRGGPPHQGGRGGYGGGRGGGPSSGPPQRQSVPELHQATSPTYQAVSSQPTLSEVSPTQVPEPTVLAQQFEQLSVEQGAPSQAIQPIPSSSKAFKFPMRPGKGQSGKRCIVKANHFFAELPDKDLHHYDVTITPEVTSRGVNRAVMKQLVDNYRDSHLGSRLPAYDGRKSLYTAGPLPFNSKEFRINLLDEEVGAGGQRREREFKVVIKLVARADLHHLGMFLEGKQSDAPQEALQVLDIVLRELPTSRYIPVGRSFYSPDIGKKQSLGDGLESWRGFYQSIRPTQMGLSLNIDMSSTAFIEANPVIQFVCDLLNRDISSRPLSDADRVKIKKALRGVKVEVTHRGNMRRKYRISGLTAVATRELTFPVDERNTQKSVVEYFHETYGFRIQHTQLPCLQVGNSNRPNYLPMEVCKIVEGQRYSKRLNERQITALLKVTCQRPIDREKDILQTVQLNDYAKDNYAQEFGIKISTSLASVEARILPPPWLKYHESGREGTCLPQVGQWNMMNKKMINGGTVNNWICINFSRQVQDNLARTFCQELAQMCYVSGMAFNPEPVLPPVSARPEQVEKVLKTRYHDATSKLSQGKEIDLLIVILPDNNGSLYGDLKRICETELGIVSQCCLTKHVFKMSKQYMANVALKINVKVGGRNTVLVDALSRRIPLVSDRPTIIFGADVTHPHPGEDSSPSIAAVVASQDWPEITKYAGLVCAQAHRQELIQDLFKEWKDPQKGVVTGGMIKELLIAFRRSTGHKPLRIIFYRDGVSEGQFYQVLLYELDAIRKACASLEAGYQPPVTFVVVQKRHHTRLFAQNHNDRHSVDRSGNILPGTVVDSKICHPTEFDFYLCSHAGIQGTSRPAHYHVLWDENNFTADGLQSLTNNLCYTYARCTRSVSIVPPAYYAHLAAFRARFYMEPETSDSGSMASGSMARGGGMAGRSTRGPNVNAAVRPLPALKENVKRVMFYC

[3] = target: T3, PO…-BINDING PROTEIN RBP47C′, Prot-A fusion (Arabidopsis thaliana, UniProt Q9SX80 1-434)
T3 construct: RBP47C′, Arabidopsis thaliana, AT1G47500; CDS amplified from Col-0 cDNA; source: HEK293TN cells, transfected; not shown: Protein A (Staphylococcus aureus), N-terminal, kept
T3 sequence (looked up): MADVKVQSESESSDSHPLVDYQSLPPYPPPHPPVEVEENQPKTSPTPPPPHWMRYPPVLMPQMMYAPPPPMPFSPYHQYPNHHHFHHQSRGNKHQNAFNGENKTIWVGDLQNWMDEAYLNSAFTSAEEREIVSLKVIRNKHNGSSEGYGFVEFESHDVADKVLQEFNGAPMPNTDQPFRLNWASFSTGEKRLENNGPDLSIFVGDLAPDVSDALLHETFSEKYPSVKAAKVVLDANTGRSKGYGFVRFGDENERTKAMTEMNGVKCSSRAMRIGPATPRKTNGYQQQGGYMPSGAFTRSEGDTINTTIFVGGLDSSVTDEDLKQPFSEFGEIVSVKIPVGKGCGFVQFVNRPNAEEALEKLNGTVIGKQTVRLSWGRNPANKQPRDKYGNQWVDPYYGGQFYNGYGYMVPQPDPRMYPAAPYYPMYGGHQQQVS

B1: AN, Renilla luciferase fusion (LUMIER) (natural protein, Arabidopsis thaliana, UniProt O23702 1-636, looked up)
chain: MSKIRSSATMPHRDQPSPASPHVVTLNCIEDCALEQDSLAGVAGVEYVPLSRIADGKIESATAVLLHSLAYLPRAAQRRLRPHQLILCLGSADRAVDSTLAADLGLRLVHVDTSRAEEIADTVMALILGLLRRTHLLSRHALSASGWLGSLQPLCRGMRRCRGMVLGIVGRSVSARYLASRSLAFKMSVLYFDVPEGDEERIRPSRFPRAARRMDTLNDLLAASDVISLHCALTNDTVQILNAECLQHIKPGAFLVNTGSCQLLDDCAVKQLLIDGTIAGCALDGAEGPQWMEAWVKEMPNVLILPRSADYSEEVWMEIREKAISILHSFFLDGVIPSNTVSDEEVEESEASEEEEQSPSKHEKLAIVESTSRQQGESTLTSTEIVRREASELKESLSPGQQHVSQNTAVKPEGRRSRSGKKAKKRHSQQKYMQKTDGSSGLNEESTSRRDDIAMSDTEEVLSSSSRCASPEDSRSRKTPLEVMQESSPNQLVMSSKKFIGKSSELLKDGYVVALYAKDLSGLHVSRQRTKNGGWFLDTLSNVSKRDPAAQFIIAYRNKDTVGLRSFAAGGKLLQINRRMEFVFASHSFDVWESWSLEGSLDECRLVNCRNSSAVLDVRVEILAMVGDDGITRWID
notes: ANGUSTIFOLIA (AN), Arabidopsis thaliana, AT1G01510; CDS amplified from Col-0 cDNA; in the dimerisation test the second copy must have been the N-terminal protein A fusion (surmised from the LUMIER format); also called wild-type AN; source: HEK293TN cells, transfected; not shown: Renilla reniformis luciferase, N-terminal, kept
For B1, the “fold change from background” value [1] was 2.93 fold, the percentage pulldown [1] was 0.28% and the “fold change from background” value [2] was 5.02 fold. For the same binder, the percentage pulldown [2] was 0.47%, the “fold change from background” value [3] was 3.07 fold and the percentage pulldown [3] was 0.29%.
